{
  "source": "patent US11466286B2",
  "about": "“Methods and compositions for conferring and/or enhancing herbicide tolerance using protoporphyrinogen oxidase or variant thereof” (FarmHannong Co., Ltd., priority 2016, dated 2022)",
  "data": [
    {"system": "CyPPO13", "experiment": "PPO enzyme activity and IC50 by herbicides, CyPPO13 wild type and variants (MBP-PPO fusion)", "format": "biochemical, Synechococcus sp. JA-3-3Ab", "details": "PPO enzyme activity of CyPPO13 protein, wild type = 100", "method": "The enzyme activities of PPO protein and PPO protein variants were examined, and inhibition assay by PPO-inhibiting herbicides was conducted. It was confirmed that the PPO protein has low water-solubility, but in case of being expressed as a fusion protein with MBP (maltose binding protein) (MBP-PPO), the PPO protein is able to be stably expressed as water-soluble form. Therefore, the wild type and variant proteins which were expressed in the form of fusion protein with MBP were used in the present test (refer to FIG. 4).\nIn order to express wild type genes and mutant genes of CyPPO10 and CyPPO13 (refer to Example 1 and Example 4), those genes were introduced to pMAL-c2X vector (refer to FIG. 5) respectively, and then cloned to BL21 (DE3) E. coli (CodonPlus).\nThe enzyme activity of the purified wild type protein and variant proteins of CyPPO10 and CyPPO13 was measured by the following process.\nAt first, a substrate of PPO protein, Protoporphyrinogen IX was synthesized. This process was performed in the space where nitrogen gas is streamed. 6 mg of protoporphyrin IX was dissolved in 20% (v/v) EtOH 20 ml, and stirred under dark condition for 30 minutes. The obtained protoporphyrinogen IX solution was put into a 15 ml screw tube in an amount of 800 and flushed with nitrogen gas for 5 minutes. To this, 1 g of sodium amalgam was added and vigorous shaking was performed for 2 minutes. The lid was open to exhaust hydrogen gas in the tube. Thereafter, the lid was closed and incubated for 3 minutes. The […] was filtered using syringe and cellulose membrane filter. To 600 μl of the obtained […], 2M MOPS [3-(N-morpholino)propanesulfonic acid] was added in an amount of approximately 300 thereby adjusting pH to 8.0. To determine the enzyme activity of PPO protein, a reaction mixture was prepared with the following composition (based on 10 ml): 50 mM Tris-Cl (pH 8.0); 50 mM NaCl; 0.04% (v/v) Tween 20; 40 mM glucose (0.072 g); 5 units glucose oxidase (16.6 mg); and 10 units catalase (1 μl).\nTwo hundred microliters (200 μl) of reaction mixture containing a purified PPO protein were placed in 96 well plates, and preincubated for 30 min at room temperature to reduce the oxygen concentration by the reaction of glucose oxidase-catalase. The mineral oil was layered and then the reaction was initiated by adding the substrate, […], to a final concentration of 50 μM. The reaction proceeded at room temperature for 30 min and the fluorescence of protoporphyrin IX was measured using Microplate reader (Sense, Hidex) (excitation: 405 nm; emission: 633 nm). To calculate the PPO enzyme activity, protoporphyrinogen IX solution was kept open in the air to oxidize the solution (overnight). To this, 2.7N HCl was added, and the absorbance at 408 nm was measured. A standard curve was generated using standard protoporphyrin IX, and the PPO activity was measured by calibration of protoporphyrin IX using the standard curve of protoporphyrin IX.\nThe final concentration of each herbicide was as follows: […]", "units": {"Activity (%)": "%"}, "values": [
      {"molecule": "CyPPO13 A177I + F373M: CyPPO13 (SEQ ID NO: 4) PPO variant (protein, Synthetic CyPPO13) MNPATPEPLNAEVVVIGAGISGLTLAWRLQQGLSARGGSPQAVLLAEASSRVGGCISTQSKDGYRWEEGPNSFTPTPALLNLIAEVGLTDQLVLADAKLPRYIYWEGALLPVPLSPAAALGSRLLSVGGKLRALQGLLGFVPPPPGHEETVRQFFRRQLGSEVAERLVEPFTSGVYIGDPDQLSAVAAFPRVAGLEERYGSLFAGALQALRQRPQPSPAAIQPPPKRGQLGNLRQGLQQLPEALAQKLGDSLRLGWRALQLKRAGELYWVGFETPEGSRWVAARQVVLALPAYEAAALLQELNPPASQLLAEILYPPVAVVALAYPQEALPQPLRGFGHLIPRSQGLRTLGTIWASCLFPERAPQGYHSFLSMLGGATDAALARRRGIPPIPALSPEERAQIAHAELSQVLLTRRAEPVYLGERLWPRAIPQYTLGHRQRIAQVQAHLASQTPGIWVCANYLDGVALGDCVRRAEALAQQLLSQV", "Activity (%)": 75},
      {"molecule": "CyPPO13 V318M + F373M: CyPPO13 (SEQ ID NO: 4) PPO variant (protein, Synthetic CyPPO13) MNPATPEPLNAEVVVIGAGISGLTLAWRLQQGLSARGGSPQAVLLAEASSRVGGCISTQSKDGYRWEEGPNSFTPTPALLNLIAEVGLTDQLVLADAKLPRYIYWEGALLPVPLSPAAALGSRLLSVGGKLRALQGLLGFVPPPPGHEETVRQFFRRQLGSEVAERLVEPFTSGVYAGDPDQLSAVAAFPRVAGLEERYGSLFAGALQALRQRPQPSPAAIQPPPKRGQLGNLRQGLQQLPEALAQKLGDSLRLGWRALQLKRAGELYWVGFETPEGSRWVAARQVVLALPAYEAAALLQELNPPASQLLAEILYPPMAVVALAYPQEALPQPLRGFGHLIPRSQGLRTLGTIWASCLFPERAPQGYHSFLSMLGGATDAALARRRGIPPIPALSPEERAQIAHAELSQVLLTRRAEPVYLGERLWPRAIPQYTLGHRQRIAQVQAHLASQTPGIWVCANYLDGVALGDCVRRAEALAQQLLSQV", "Activity (%)": 72},
      {"molecule": "CyPPO13 A177C + F373V: CyPPO13 (SEQ ID NO: 4) PPO variant (protein, Synthetic CyPPO13) MNPATPEPLNAEVVVIGAGISGLTLAWRLQQGLSARGGSPQAVLLAEASSRVGGCISTQSKDGYRWEEGPNSFTPTPALLNLIAEVGLTDQLVLADAKLPRYIYWEGALLPVPLSPAAALGSRLLSVGGKLRALQGLLGFVPPPPGHEETVRQFFRRQLGSEVAERLVEPFTSGVYCGDPDQLSAVAAFPRVAGLEERYGSLFAGALQALRQRPQPSPAAIQPPPKRGQLGNLRQGLQQLPEALAQKLGDSLRLGWRALQLKRAGELYWVGFETPEGSRWVAARQVVLALPAYEAAALLQELNPPASQLLAEILYPPVAVVALAYPQEALPQPLRGFGHLIPRSQGLRTLGTIWASCLFPERAPQGYHSFLSVLGGATDAALARRRGIPPIPALSPEERAQIAHAELSQVLLTRRAEPVYLGERLWPRAIPQYTLGHRQRIAQVQAHLASQTPGIWVCANYLDGVALGDCVRRAEALAQQLLSQV", "Activity (%)": 56},
      {"molecule": "CyPPO13 V175L + F373M: CyPPO13 (SEQ ID NO: 4) PPO variant (protein, Synthetic CyPPO13) MNPATPEPLNAEVVVIGAGISGLTLAWRLQQGLSARGGSPQAVLLAEASSRVGGCISTQSKDGYRWEEGPNSFTPTPALLNLIAEVGLTDQLVLADAKLPRYIYWEGALLPVPLSPAAALGSRLLSVGGKLRALQGLLGFVPPPPGHEETVRQFFRRQLGSEVAERLVEPFTSGLYAGDPDQLSAVAAFPRVAGLEERYGSLFAGALQALRQRPQPSPAAIQPPPKRGQLGNLRQGLQQLPEALAQKLGDSLRLGWRALQLKRAGELYWVGFETPEGSRWVAARQVVLALPAYEAAALLQELNPPASQLLAEILYPPVAVVALAYPQEALPQPLRGFGHLIPRSQGLRTLGTIWASCLFPERAPQGYHSFLSMLGGATDAALARRRGIPPIPALSPEERAQIAHAELSQVLLTRRAEPVYLGERLWPRAIPQYTLGHRQRIAQVQAHLASQTPGIWVCANYLDGVALGDCVRRAEALAQQLLSQV", "Activity (%)": 93},
      {"molecule": "CyPPO13 A177L + F373T: CyPPO13 (SEQ ID NO: 4) PPO variant (protein, Synthetic CyPPO13) MNPATPEPLNAEVVVIGAGISGLTLAWRLQQGLSARGGSPQAVLLAEASSRVGGCISTQSKDGYRWEEGPNSFTPTPALLNLIAEVGLTDQLVLADAKLPRYIYWEGALLPVPLSPAAALGSRLLSVGGKLRALQGLLGFVPPPPGHEETVRQFFRRQLGSEVAERLVEPFTSGVYLGDPDQLSAVAAFPRVAGLEERYGSLFAGALQALRQRPQPSPAAIQPPPKRGQLGNLRQGLQQLPEALAQKLGDSLRLGWRALQLKRAGELYWVGFETPEGSRWVAARQVVLALPAYEAAALLQELNPPASQLLAEILYPPVAVVALAYPQEALPQPLRGFGHLIPRSQGLRTLGTIWASCLFPERAPQGYHSFLSTLGGATDAALARRRGIPPIPALSPEERAQIAHAELSQVLLTRRAEPVYLGERLWPRAIPQYTLGHRQRIAQVQAHLASQTPGIWVCANYLDGVALGDCVRRAEALAQQLLSQV", "Activity (%)": 62},
      {"molecule": "CyPPO13 A177L + F373M: CyPPO13 (SEQ ID NO: 4) PPO variant (protein, Synthetic CyPPO13) MNPATPEPLNAEVVVIGAGISGLTLAWRLQQGLSARGGSPQAVLLAEASSRVGGCISTQSKDGYRWEEGPNSFTPTPALLNLIAEVGLTDQLVLADAKLPRYIYWEGALLPVPLSPAAALGSRLLSVGGKLRALQGLLGFVPPPPGHEETVRQFFRRQLGSEVAERLVEPFTSGVYLGDPDQLSAVAAFPRVAGLEERYGSLFAGALQALRQRPQPSPAAIQPPPKRGQLGNLRQGLQQLPEALAQKLGDSLRLGWRALQLKRAGELYWVGFETPEGSRWVAARQVVLALPAYEAAALLQELNPPASQLLAEILYPPVAVVALAYPQEALPQPLRGFGHLIPRSQGLRTLGTIWASCLFPERAPQGYHSFLSMLGGATDAALARRRGIPPIPALSPEERAQIAHAELSQVLLTRRAEPVYLGERLWPRAIPQYTLGHRQRIAQVQAHLASQTPGIWVCANYLDGVALGDCVRRAEALAQQLLSQV", "Activity (%)": 75},
      {"molecule": "CyPPO13 A177C + F373T: CyPPO13 (SEQ ID NO: 4) PPO variant (protein, Synthetic CyPPO13) MNPATPEPLNAEVVVIGAGISGLTLAWRLQQGLSARGGSPQAVLLAEASSRVGGCISTQSKDGYRWEEGPNSFTPTPALLNLIAEVGLTDQLVLADAKLPRYIYWEGALLPVPLSPAAALGSRLLSVGGKLRALQGLLGFVPPPPGHEETVRQFFRRQLGSEVAERLVEPFTSGVYCGDPDQLSAVAAFPRVAGLEERYGSLFAGALQALRQRPQPSPAAIQPPPKRGQLGNLRQGLQQLPEALAQKLGDSLRLGWRALQLKRAGELYWVGFETPEGSRWVAARQVVLALPAYEAAALLQELNPPASQLLAEILYPPVAVVALAYPQEALPQPLRGFGHLIPRSQGLRTLGTIWASCLFPERAPQGYHSFLSTLGGATDAALARRRGIPPIPALSPEERAQIAHAELSQVLLTRRAEPVYLGERLWPRAIPQYTLGHRQRIAQVQAHLASQTPGIWVCANYLDGVALGDCVRRAEALAQQLLSQV", "Activity (%)": 80},
      {"molecule": "CyPPO13 A177L + F373V: CyPPO13 (SEQ ID NO: 4) PPO variant (protein, Synthetic CyPPO13) MNPATPEPLNAEVVVIGAGISGLTLAWRLQQGLSARGGSPQAVLLAEASSRVGGCISTQSKDGYRWEEGPNSFTPTPALLNLIAEVGLTDQLVLADAKLPRYIYWEGALLPVPLSPAAALGSRLLSVGGKLRALQGLLGFVPPPPGHEETVRQFFRRQLGSEVAERLVEPFTSGVYLGDPDQLSAVAAFPRVAGLEERYGSLFAGALQALRQRPQPSPAAIQPPPKRGQLGNLRQGLQQLPEALAQKLGDSLRLGWRALQLKRAGELYWVGFETPEGSRWVAARQVVLALPAYEAAALLQELNPPASQLLAEILYPPVAVVALAYPQEALPQPLRGFGHLIPRSQGLRTLGTIWASCLFPERAPQGYHSFLSVLGGATDAALARRRGIPPIPALSPEERAQIAHAELSQVLLTRRAEPVYLGERLWPRAIPQYTLGHRQRIAQVQAHLASQTPGIWVCANYLDGVALGDCVRRAEALAQQLLSQV", "Activity (%)": 49}
    ]}
  ]
}
